# T1: human GIP receptor (human) (UniProt P48546)
# T1 sequence (looked up): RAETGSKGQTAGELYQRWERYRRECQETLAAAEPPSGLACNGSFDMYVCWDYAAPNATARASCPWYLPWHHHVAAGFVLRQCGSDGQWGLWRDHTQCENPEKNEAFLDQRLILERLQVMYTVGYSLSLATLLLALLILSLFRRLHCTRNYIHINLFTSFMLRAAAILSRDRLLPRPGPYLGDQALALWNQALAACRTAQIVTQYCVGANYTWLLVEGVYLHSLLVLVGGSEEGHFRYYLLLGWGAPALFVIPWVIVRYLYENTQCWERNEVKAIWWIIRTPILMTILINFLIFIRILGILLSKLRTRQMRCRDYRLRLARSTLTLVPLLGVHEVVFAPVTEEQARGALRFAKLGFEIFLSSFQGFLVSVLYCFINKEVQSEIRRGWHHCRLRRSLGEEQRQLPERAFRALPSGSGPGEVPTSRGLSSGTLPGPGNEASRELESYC
# T2: human GIP receptor (human, UniProt P48546 22-466)
# T2 construct: whole, on cells; also called hGIPR; human glucose-dependent insulinotropic polypeptide receptor
# T2 sequence (looked up): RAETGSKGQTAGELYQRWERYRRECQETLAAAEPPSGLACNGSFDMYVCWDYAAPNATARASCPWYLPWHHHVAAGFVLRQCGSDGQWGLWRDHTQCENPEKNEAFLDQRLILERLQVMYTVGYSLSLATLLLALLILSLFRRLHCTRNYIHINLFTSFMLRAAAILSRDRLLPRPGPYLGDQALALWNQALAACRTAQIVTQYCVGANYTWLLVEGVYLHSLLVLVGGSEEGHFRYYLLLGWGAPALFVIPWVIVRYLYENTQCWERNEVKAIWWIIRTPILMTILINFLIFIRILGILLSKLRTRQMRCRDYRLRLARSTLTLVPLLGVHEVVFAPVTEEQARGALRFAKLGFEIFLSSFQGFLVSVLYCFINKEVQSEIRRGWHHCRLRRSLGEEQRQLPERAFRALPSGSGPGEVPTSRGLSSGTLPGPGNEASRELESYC
# Assays:
# [1] = target: hGLP-1R (Homo sapiens, UniProt P43220); assay: cell-based or functional assay
# [2] = target: T1, human GIP receptor (human); assay: cell-based or functional assay
# [3] = target: human glucagon receptor (human) (UniProt P47871); assay: cell-based or functional assay
# [4] = target: T2, human GIP receptor; assay: SPA competition vs [125I]-GIP, hGIPR membranes
# Description: The binding buffer contains 25 mM HEPES, pH 7.4, 2.5 mM CaCl₂, 1 mM MgCl₂, 0.1% (w/v) bacitracin, 0.003% (w/v) TWEEN®-20, and Roche Complete™ Protease Inhibitors without EDTA. […] Plates are sealed and mixed on a plate shaker (setting 6) for 1 minute and read with a PerkinElmer Trilux MicroBeta® scintillation counter after 2.5 to 12 hours of incubation/settling time at room temperature.
# (§1) Data are analyzed using four-parameter (curve maximum, curve minimum, IC₅₀, Hill slope) nonlinear regression routines (Genedata Screener, version 12.0.4, Genedata AG, Basal, Switzerland). […] Values for Kᵢ are reported as the geometric mean, with error expressed as the standard error of the mean (SEM) and n is equal to the number of independent replicates (determined in assays performed on different days). Geometric Means are calculated as follows: […]
# [5] = target: T3, human GLP-1 receptor (human, UniProt P43220 24-463); assay: SPA competition vs [125I]-GLP-1, hGLP-1R membranes
# T3 construct: whole, on cells; also called hGLP-1R; human glucagon-like peptide-1 receptor
# Description: The binding buffer contains 25 mM HEPES, pH 7.4, 2.5 mM CaCl₂, 1 mM MgCl₂, 0.1% (w/v) bacitracin, 0.003% (w/v) TWEEN®-20, and Roche Complete™ Protease Inhibitors without EDTA.
# as §1
Molecule,cAMP EC50 (1.0% HSA) [1] [nM],cAMP Emax (1.0% HSA) [1] [%],cAMP EC50 (1.0% HSA) [2] [nM],cAMP Emax (1.0% HSA) [2] [%],cAMP EC50 (1.0% HSA) [3] [nM],Ki [4] [nM],Ki [5] [nM]
Y-Aib-EGT-αMeF(2F)-TSD-4Pal-SI-αMeL-LD-Orn-K((εK)-(εK)-(γ-Glu)-CO-(CH2)12-CO2H)AQ-Aib-EFI-(D-Glu)-αMeY-LIEGGK((εK)-(εK)-(γ-Glu)-CO-(CH2)12-CO2H)-NH2 (peptide),18,109,0.939,79.3,> 9950,,
Y-Aib-EGT-αMeF(2F)-TSD-4Pal-SI-αMeL-LD-Orn-K((2-[2-(2-Amino-ethoxy)-ethoxy]-acetyl)2-(γ-Glu)-CO-(CH2)12-CO2H)AQ-Aib-EFIK((2-[2-(2-Amino-ethoxy)-ethoxy]-acetyl)2-(γ-Glu)-CO-(CH2)12-CO2H)-αMeY-LIEG-Orn-NH2 (peptide),28.9,112,1.55,82.8,> 9950,,
Y-Aib-EGT-αMeF(2F)-TSD-4Pal-SI-αMeL-LD-Orn-K((2-[2-(2-Amino-ethoxy)-ethoxy]-acetyl)2-(γ-Glu)-CO-(CH2)12-CO2H)AQ-Aib-EFIK((2-[2-(2-Amino-ethoxy)-ethoxy]-acetyl)2-(γ-Glu)-CO-(CH2)12-CO2H)-αMeY-…-NH2 (peptide),19.1,106,1.37,89,> 9950,,
Y-Aib-EGT-αMeF(2F)-TSD-4Pal-SI-αMeL-LD-Orn-K((2-[2-(2-Amino-ethoxy)-ethoxy]-acetyl)2-(γ-Glu)-CO-(CH2)14-CH3)AQ-Aib-EFI-(D-Glu)K((2-[2-(2-Amino-ethoxy)-ethoxy]-acetyl)2-(γ-Glu)-CO-(CH2)14-CH3)…-NH2 (peptide),1.73,102,0.148,98.2,> 9950,,
Y-Aib-EGT-αMeF(2F)-TSD-4Pal-SI-αMeL-LD-Orn-K((2-[2-(2-Amino-ethoxy)-ethoxy]-acetyl)2-(γ-Glu)-(4-(4-tert-butylphenyl)butanoyl))AQ-Aib-EFIE-K((2-[2-(2-Amino-ethoxy)-ethoxy]-acetyl)2-(γ-Glu)-(4-(4-tert-butylphenyl)butanoyl))…-NH2 (peptide),5.79,102,0.0831,92.4,> 9950,,
Y-Aib-EGT-αMeF(2F)-TSD-4Pal-SI-αMeL-LD-Orn-K((εK)-(γ-Glu)-CO-(CH2)12-CO2H)AQ-Aib-EFI-(D-Glu)-αMeY-LIEGGK((εK)-(γ-Glu)-CO-(CH2)12-CO2H)-NH2 (peptide),24.3,107,2.19,85.6,> 9950,,
Y-Aib-EGT-αMeF(2F)-TSD-4Pal-SI-αMeL-LD-Orn-IAQ-Aib-K((2-[2-(2-Amino-ethoxy)-ethoxy]-acetyl)2-(γ-Glu)-CO-(CH2)12-CO2H)FIK((2-[2-(2-Amino-ethoxy)-ethoxy]-acetyl)2-(γ-Glu)-CO-(CH2)12-CO2H)-αMeY-…-NH2 (peptide),18.9,102,2.32,86.8,> 9950,,
Y-Aib-EGT-αMeF(2F)-TSD-4Pal-SI-αMeL-LD-Orn-K((2-[2-(2-Amino-ethoxy)-ethoxy]-acetyl)2-(γ-Glu)-(4-(4-tert-butylphenyl)butanoyl))AQ-Aib-EFI-(D-Glu)-K((2-[2-(2-Amino-ethoxy)-ethoxy]-acetyl)2-(γ-Glu)-(4-(4-tert-butylphenyl)butanoyl))…-NH2 (peptide),12,104,0.0417,91.9,> 9950,,
Y-Aib-EGT-αMeF(2F)-TSD-4Pal-SI-αMeL-LD-Orn-K((2-[2-(2-Amino-ethoxy)-ethoxy]-acetyl)2-(γ-Glu)-CO-(CH2)12-CO2H)AQ-Aib-EFI-(D-Glu)-αMeY-LIEGGK((2-[2-(2-Amino-ethoxy)-ethoxy]-acetyl)2-(γ-Glu)-CO-(CH2)12-CO2H)SSG-NH2 (peptide),66.6,97.3,1.22,75.5,> 9950,,
Y-Aib-EGT-αMeF(2F)-TSD-4Pal-SI-αMeL-LD-Orn-K((2-[2-(2-Amino-ethoxy)-ethoxy]-acetyl)2-(γ-Glu)-CO-(CH2)12-CO2H)AQ-Aib-EFI-(D-Glu)-αMeY-LIEGGK((2-[2-(2-Amino-ethoxy)-ethoxy]-acetyl)2-(γ-Glu)-CO-(CH2)12-CO2H)SSG-Orn-PPPS-NH2 (peptide),40.8,98.2,1.15,94.1,> 9950,,
Y-Aib-EGT-αMeF(2F)-TSD-4Pal-SI-αMeL-LD-Orn-K((2-[2-(2-Amino-ethoxy)-ethoxy]-acetyl)2-(γ-Glu)-CO-(CH2)12-CO2H)AQ-Aib-EFI-(D-Glu)-αMeY-LIEGGK((2-[2-(2-Amino-ethoxy)-ethoxy]-acetyl)2-(γ-Glu)-CO-(CH2)12-CO2H)SSG-Orn-PPP-Orn-NH2 (peptide),34.6,102,1.25,96.5,> 9950,,
Y-Aib-EGT-αMeF(2F)-TSD-4Pal-SI-αMeL-LD-Orn-K((2-[2-(2-Amino-ethoxy)-ethoxy]-acetyl)2-(εK)-CO-(CH2)12-CO2H)AQ-Aib-EFI-(D-Glu)-αMeY-LIEGGK((2-[2-(2-Amino-ethoxy)-ethoxy]-acetyl)2-(εK)-CO-(CH2)12-CO2H)-NH2 (peptide),11.3,103,0.335,86.2,> 9950,,
Y-Aib-EGT-αMeF(2F)-TSD-4Pal-SI-αMeL-LD-Orn-K((2-[2-(2-Amino-ethoxy)-ethoxy]-acetyl)2-(γ-Glu)-CO-(CH2)12-CO2H)AQ-Aib-EFI-(D-Glu)-αMeY-LIEGGK((2-[2-(2-Amino-ethoxy)-ethoxy]-acetyl)2-(γ-Glu)-CO-(CH2)12-CO2H)-NH2 (peptide),119,87.8,2.46,81.2,> 9950,,
"YXEGTXTSDXSIXLDXKAQXEFIXXLIEGGKSSGAPPPS (Aib2, αMeF(2F)6, 4Pal10, αMeL13, Orn16, K17(Z1), Aib20, D-Glu24, αMeY25, K31(Z1), C-term NH2; Z1=AEEA2-(γ-Glu)-CO-(CH2)10-CO2H)",,,,,,0.145,2.99
"YXEGTXTSDKSIXLDXKAQXEFIXXLIEGGPSSGAPPPS (Aib2, αMeF(2F)6, K10(Z1), αMeL13, Orn16, K17(Z1), Aib20, D-Glu24, αMeY25, C-term NH2; Z1=AEEA2-(γ-Glu)-CO-(CH2)12-CO2H)",,,,,,0.378,6.48
"YXEGTXTSDXXIXLDXQAQXEFIKXLIKGGPSSGAPPPS (Aib2, αMeF(2F)6, 4Pal10, Aib11, αMeL13, Orn16, Aib20, K24(Z1), αMeY25, K28(Z1), C-term NH2; Z1=AEEA2-(γ-Glu)-CO-(CH2)12-CO2H)",,,,,,0.0375,1.33
"YXEGTXTSDXXIXLDXQAQXXFIKXLIKGGPSSGAPPPS (Aib2, αMeF(2F)6, 4Pal10, Aib11, αMeL13, Orn16, Aib20, Orn21, K24(Z1), αMeY25, K28(Z1), C-term NH2; Z1=AEEA-(γ-Glu)-CO-(CH2)12-CO2H)",,,,,,0.023,0.224
"YXEGTXTSDXXIXLDXQAQXEFIKXLIKGGPSSGAPPPS (Aib2, αMeF(2F)6, 4Pal10, Aib11, αMeL13, Orn16, Aib20, K24(Z1), αMeY25, K28(Z1), C-term NH2; Z1=AEEA3-(γ-Glu)-CO-(CH2)12-CO2H)",,,,,,0.0528,0.433
"YXEGTXTSDYXIXLDXQAQXXFIKXLIKGGPSSGAPPPS (Aib2, αMeF(2F)6, Aib11, αMeL13, Orn16, Aib20, Orn21, K24(Z1), αMeY25, K28(Z1), C-term NH2; Z1=AEEA3-(γ-Glu)-CO-(CH2)12-CO2H)",,,,,,0.0249,0.246

# From patent US20230265151A1, “GIP/GLP1 CO-AGONIST COMPOUNDS” (priority 2020, published 2023)
